Assay: yeast display, Sf9 membrane polyspecificity reagent, FACS + sequencing; frameworks hold sequencing errors
How it was run: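 Polyreactivity labels are assigned by the sorting gate from which each nanobody was recovered. The gates were low and high (top ~1%), set on anti-HA fluorescence for expression and streptavidin fluorescence for reagent binding. Before sorting, galactose-induced (36–48 hours) yeast display cells were stained for 1 hour at 4 °C with 10% biotinylated, detergent-solubilized Sf9 membrane reagent.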

Row | Sequence | polyreactivity (PSR sort gate)
1 | QVQLVESGGGLVQAGGSLRLSCAASGSTFYQYDMGWSRQAPGKERELVATISWSATSTYYADSVKGRFTISRDNAKNTVYLQMNSLKPEDTAVYYCNADLGDVYGWLHYDYWGQGTQVTVSS | low polyreactivity
2 | QVQLVESGGGLVQAGGSLRLSCAASGITFQRYVMGWYRQAPGKERELVAAISFSGSSTYYADSVKGRFTISRDNAKNTVYLQMNSLKPEDTAVYYCAADGSVPKYVPYPRYYGYGYWGQGTQVTVSS | high polyreactivity
3 | QVQLVESGGGLVQAGGSLRLSCAASGRSFGLYAMGWYRQAPGKERELVAAISYSGGRTYYADSVKRRFTLSRDNAKKTVYLQRNILKPEDTGVYYCNKAWFPYYYYRFDYWGQGTQVTVSS | high polyreactivity
4 | QVQLVESGGGLVQAGGSLRLSCAASGFTFSYYAMGWYRQAPGKERELVATITSGGSTYYADSVKGRFTISRDNAKNTVYLQMNSLKPEDTAVYYCNADWYWRVYWGQGTQVTVSS | high polyreactivity
5 | QVQLVESGGGLVQAGGSLRLSCAASGSIFEAYVMGWYRQAPGKQRELVAAITTGGGSTYYADSVKWRFTISRDNAKNTVYLQMNSLKPEDTAVYYCGKDYWFGYEYWGQGTQVTVSS | low polyreactivity
6 | QVQLVESGGGLVQAGRSLRLSCAASGRTFDEYAMGWYRQAPGKERELVAAISARGGRTYYADSVKGRFTISRDNAKNTVYLQMNSLKPEDTAVYYCAAAGYITRYDRYDYWGQGTQVTVSS | high polyreactivity
7 | QVQLVESGGGLVQAGGSLRISCAASGRTFYINAMGWYRQAPGKVWELVASISRSGGGTYYADSVKGRFTISRDNAKNNVYLQMNCLKPEDTAVYYCAAYSWSYSGYNFWGQGTQVTVSS | high polyreactivity
8 | QVQLVESGGGLVQAGGSLRLSCAASGSTFPVYAMGWYRQAPGKERELVASLSSGAETNYADSVKGRFTISRDNAKNTVYLQLISLTPEDTAVYYCAATVPLRTIRPRSYGYWGQGTQVTVSS | low polyreactivity
9 | QVQLVESGGGLVQAGGSLRLSCAASGSTFNGYVMGWYRQAPGKERELVAAISRSGGSTYYADSVKGRFTISRDNAKNTVYLQMNSLKPEDTAVYYCAVQRKSSKRAFRYGYWGQGTQVTVSS | high polyreactivity
10 | KVQLVESGAGLVQAGGSLRLSCAASVSNFTSHAMGWSRQAPGKEREFVAAISVGGGITYYADSVKGRFTISRDHEKNTVYLQMNSLNPEDTAVYYCDADGEYPHSDDFEYWGQVTQVTVSS | low polyreactivity
11 | QVQLVESGGGLVQAGGSLRLSCAASGSNFFSNAMGWYRQAPGKERELVAAITSTGGSTYYADSVKGRFTISRDNAKNTVYLQMNSLKPEVTAVYYCAAASRRGYYYWGQGTQVTVSS | high polyreactivity
12 | QVQLVESGGGLVQAGGSLRLSCAASGFTFRDYVMGWYRQAPGKERELVAAISRSGASTYYADSVKGRFTISRDNAKNTVYLQMNSLKPEDTAVYYCAKTQAGYSPGTYYYWGQGTQVTVSS | high polyreactivity
13 | QVQLVESGGGLVQAGGSLRLSCAASGSIFWLYAMGWYRQAPGKERELVAAINWSTGRTYYADSVKGRFTISRDNAKNTVYLQMNSLKPEDTAVYYCAADLNWWFDYSSPDEMYYWGQGTQVNVSS | high polyreactivity
14 | QVQLVESGGGLVQAGGSLRLSCAASGRTFYSYAMGWYRQAPGKERELVAAINSGGDTYYADSVKGRFTISRDNAKNSVYLQMNSLKAEDSAVYYCAADYYWEMDSWGQGTQVTVSS | low polyreactivity
15 | QVQLVESGGGLVQSGVSLRLSCAASGITFYSIAIGWYRPATGKEMELVAANTRRGGSKLNADSVKGRFTNSRDNSKNTVYLQMNSLKPEDTAVYFCAADVPWWSYSDDYWGQGTKVTVSS | high polyreactivity
16 | QVQLVESGGGLVQAGGSLRLSCAASGRTFAPYAMGWYRQAPGKERELVAAISWSGGSTYYADSVKGRFTISRDNAKNSVYLQMNSLKPEDTAVYYCAVVVDYDADRYWGYDYWGQGTQVTVSS | high polyreactivity
17 | QVQLLESGGGLVQAGGSLRLSCAASGSTFNVYAMGWYRQAPGKERELVAAINWSGGNTYYADSVKGRFTISRDNAKNTVYLQMNSLNPEDTAVDYCNADGFVGTPSVDYDYWGQGTQVTVSS | low polyreactivity
18 | QVQHVESGGGLVQAGGSHRLSSAASGSTFIPNAMRWYRQAPGKERELVAAISGSGGRTYYADSVKGRFTISRDNAKNTVYLQMNSLKPEDTAVYYCAASGTSRSRKSYYWGQGTQVTVSS | high polyreactivity
19 | QVQLVESGGGLVQAGGSLRLSCAASGRTFPSYAMGWYRQAPGKERELVAAISSRGSRTYYADSVKGRFTISRDNAKNTVYLQMNSLKPEDTAVYYCAAKNLWTRKSRYDYWGQGTQVTVSS | high polyreactivity
20 | QVQLVESGGGLVQAGGSLRLSCAASGRTNSFYAMGWYRQAPGKERELVAAISRGGTTNYADSVKGRFTISRDNAKNTVYLQMNSLKPEDTAVYYCAASYFRRGFYSIYEYDYWGQGTQVTVSS | low polyreactivity
21 | QVQLVESGGGLVQAGGSLRLSCAASGFIFDYYAMGWYRQAPGKERELVAAITWSGGSTYYADSVKGRFTISRDNAKYTVFLQMNSLKPEDTAVYYCNAYNWTYCEYEYWGQGTQVTVSS | high polyreactivity
22 | QVQLVESGGGLVQAGGSLRLSCAASGSIFQYNAMGWYRQAPGKERELVAAINGGGSTYYADSEKGRFTISRDNAKNTVYLQMNSLKPEDTAVYYCAADGGAYSYRGPGKFGIEDSWGQGTQVTVSS | low polyreactivity

Row | Sequence | polyreactivity (PSR sort gate)
23 | QVQLVESGGGLVQAGGSLRLSCAASGSIFYPYAMGWYRQAPGKERELVAAIDYSDGSTYYADSVKGRFTISRDNAKNTVYLQMNSLKPEDTAVYYCAADGTYVWGSEEGNYWGQGTQVTVSS | low polyreactivity
24 | QVQLVESGGGLVQAGGSLRISCAASGFIFVRYAMGWYRQAPGKEREFVAVISRRGGSTHYADSVKGRFTISRDNAKNTVYLQMNSLKPEDTAVYYCAAVRRVYSQNDYWGQGSQVTVSS | high polyreactivity
25 | QVQLEESGGGLVQAGGSLRLSCPASGSIFSWNAMGWYRQSPGKERELVATITWNGGRTYYADSVKGRFTISRDNAKNTVYLQMKSLKPEDTAVYYCAARYYVYWTYPNRVLSYYYWGQRTQVTVSS | high polyreactivity
26 | QVQLVESGGGLVQAGGSLRLSCAASGSTFVTNAMGWYRQAPGKEREFVAAISNSSGSTYYADSVKGRFTISRDNAKNTVYLQMNSLKPEDTAVYYCIATPDDWLQEDYWGQGTQVTVSS | low polyreactivity
27 | QVQLVESGGGLVQAGGSLRLSCAASGSIFYYYVMGWYRQAPGKERELVAAITYSGGRTYYADSVKGRFTISRDNAKYTVYLQMNSLKPEDTAVYYCNVVIYYFNSRSVFYDYDYWGQGTQVTVSS | high polyreactivity
28 | QVQLVESGGGLVQAGGSLRLSCAASGFTFSDYAMGWYRQAPGKDRELVATISNGDSPYYADSVKGRFTISRDNAKNTVYVQMNSLKPVDTAVNYCATDQPYGADPSNDFDYWGQGTQVTVSS | low polyreactivity
29 | QVQLVESGGGLVQAGGSLRLSCAASGLTLETNAMGWYRQAPGKERELVAGITYSGGTTYYADSVKGRFTISRDNAKNTVYLQMNSLKPEDTAVYYCNAQERRVRDYDYWGQGTEVTVSS | low polyreactivity
30 | QVQLVESGGGLVQAGGSLRLSCAASGRSFCYNAMGWYSQAPGKERELVAGISSSGGTTYYADSVKGRFTISRDKAKNTVYLQMNSLKPEDTAVYYCAKRFSLLSTVRWGRYNYWGQGTQVTVSS | high polyreactivity
31 | QVQLGESGGGLVQAGGSLRLSCAASGSTFTSYAMGGSRQAPGKERELVAAITHRGSTNYADSVKGRFTISRDNAKYTVDLQMNSLKPEDTAVYYCNARYATSVLYDYWRQGTQVTVSS | high polyreactivity
32 | QVQLVESGGGLVQAGGSLRLICAASGSIFGNYVMGWYRQAPGKEMELVAGISTRGGSTYYADSVKGRFTISRDNAKNTVYLQMNCLKPEDTAVYYCAAVPASYRYPMYYWGQGTQVTVSS | low polyreactivity
33 | QVQLVESGGGLVQAGGSLRLSCAASGGTFPSYAMGWYRQAPGKERELVAAISWSGGRTYYADSVKGRFTISRDNAKNTVYLQMNSLKPEDTAVYYCNADDYGYSFNYWGQGTQVTVSS | high polyreactivity
34 | QVQLVESGGGLVQAGGSLRLSCAASGFTFAYYAMGWYRQAPGKERELVAAITSRGGSTYYADSVKGRFTISRDNAKNTVYLQMNSLKPEDTAVYYCATKRVLTGYDSWGQGTQVTVSS | high polyreactivity
35 | QVQLVESGGGLVQAGGSLRLSCAASGSTFDTNAMGWYRQAPGKERELVATITSIGGSTYADSVKGRFTISRDNAKNTVYLQMNSLKPEDNAVYYCATDYVEIDYYYDYWGQGTQVTVSS | low polyreactivity
36 | QVQLVESGGGLVQAGGSLRLSCAASGRIFYGNTMGWYRQAPGKERELVAAITWRGGSTYYADSVKGRFTISRDNAKNTVYLQMNSLKPEVTAVYYCAAVSYRGRGYWGQGTQVTVSS | high polyreactivity
37 | QVQLVESGGGLVQAGGSLRLSCAASGFTFPYYTMGWYRQAPGKERELVAAINRGGGSTYYADSVKGRFTISRDNAKNTVYLHMNSLKPEDTAVYYCACLRCLFPGRFDYWGQSTQVTVSS | high polyreactivity
38 | QVQLVESGGGLVQAGGSLRLSCAPSGSTFNNYALGGYRQAPGKERELVAAIRSIGGSTYYADSVKGRFTISRDNAKNTVYLQMNSLKPEDTAVYYCAADYFYLKWYEYWGQGTQVTVSS | high polyreactivity
39 | QVQLVESGGGLVQAGGSLRLSCAASGRTFTYNAMGWYRQAPGKERELVAAISRSGGRTYYADSVKGRFTISRDNAKNTVYLQMNSLKPEDTAVYYCNTDGYYTTAKYGYWGQGTQVTVSS | high polyreactivity
40 | QVQLVESGGGLDQAGGSLRLSCAASGRTFADYAMGWYRQAPGNERELVADISKRGGSTYFADSVKGRFTISRDNAKNTFYLQMNSLKAEDTAVYYCAAGWYYYPTFYKVKSYNYWGQGTQVTVSS | high polyreactivity
41 | QVQLVESGGGLVQAGGSLRLSCAASGRIFQGYAMGWYRQAPGKERELVAAISVRGGSTFYADSVKGRFTISRDNAKNTVYLQMNSLKPEDTAVYYCATRTRYRGGYWGQGTQVTVSS | high polyreactivity
42 | QVQLVESGGGLVQAGGSLRLSCAASGSTFEYYAMGWYRQAPGKERELVAAISRGGSTYYADSVKGRFTISRDNAKNTVYLQMNSLKPEDTAVYYCAAAPDYRAEYDYWGQGTQVTVSS | low polyreactivity
43 | QVQLVESGGGLVQAGGSLRLSCAASGSIFKINAMGWYRQAPGKERELVATITWSTGTSYYADSVKGRFTISRDNAKNTVYLQMNSLKPEDTAVYYCATDGDSTKLDYWGQGTQVTVSS | low polyreactivity
